Earlier results, collected in article PMC12728182.

Columns and labels:
[1] = biological target: PAK1 (Homo sapiens) (UniProt Q13153)
[2] = biological target: WASP (Homo sapiens) (UniProt P42768)
[3] = biological target: ACK (Homo sapiens) (UniProt Q07912)
Sequence of ACK (Homo sapiens) (Q07912 whole entry): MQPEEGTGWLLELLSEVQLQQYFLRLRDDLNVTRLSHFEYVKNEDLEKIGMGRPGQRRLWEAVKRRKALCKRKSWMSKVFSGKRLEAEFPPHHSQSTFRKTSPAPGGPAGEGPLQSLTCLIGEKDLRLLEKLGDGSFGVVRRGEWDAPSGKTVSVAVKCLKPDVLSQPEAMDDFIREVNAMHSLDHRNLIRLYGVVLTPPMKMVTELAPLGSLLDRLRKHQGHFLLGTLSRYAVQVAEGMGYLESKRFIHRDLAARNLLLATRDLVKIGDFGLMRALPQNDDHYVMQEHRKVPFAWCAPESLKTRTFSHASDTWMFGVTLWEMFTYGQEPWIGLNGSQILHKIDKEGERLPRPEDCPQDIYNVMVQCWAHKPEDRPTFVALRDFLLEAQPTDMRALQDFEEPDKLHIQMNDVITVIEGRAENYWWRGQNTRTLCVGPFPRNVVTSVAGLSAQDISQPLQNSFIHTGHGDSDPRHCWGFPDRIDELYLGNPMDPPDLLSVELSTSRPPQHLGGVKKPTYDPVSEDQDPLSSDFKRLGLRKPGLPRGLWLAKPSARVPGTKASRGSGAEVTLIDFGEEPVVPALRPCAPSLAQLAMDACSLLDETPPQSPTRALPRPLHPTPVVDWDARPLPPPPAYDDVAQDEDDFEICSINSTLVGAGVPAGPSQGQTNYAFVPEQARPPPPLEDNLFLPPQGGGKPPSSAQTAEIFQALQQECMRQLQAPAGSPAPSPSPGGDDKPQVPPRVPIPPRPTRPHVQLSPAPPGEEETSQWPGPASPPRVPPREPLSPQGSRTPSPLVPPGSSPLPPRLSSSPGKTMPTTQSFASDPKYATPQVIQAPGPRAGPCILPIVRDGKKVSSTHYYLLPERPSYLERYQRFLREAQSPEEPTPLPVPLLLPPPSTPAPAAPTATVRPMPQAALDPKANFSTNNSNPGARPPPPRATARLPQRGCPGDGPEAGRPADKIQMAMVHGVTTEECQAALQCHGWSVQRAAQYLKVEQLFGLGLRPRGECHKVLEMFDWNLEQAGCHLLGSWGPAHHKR

Sequence of Cdc42 (P60953 1-188): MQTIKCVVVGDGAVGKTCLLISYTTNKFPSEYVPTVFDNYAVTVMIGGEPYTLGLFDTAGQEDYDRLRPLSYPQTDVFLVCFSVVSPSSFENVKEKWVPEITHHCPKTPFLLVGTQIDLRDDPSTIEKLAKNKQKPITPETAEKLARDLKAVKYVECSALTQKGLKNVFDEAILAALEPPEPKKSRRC
Sequence of WASP (Homo sapiens) (P42768 2-502): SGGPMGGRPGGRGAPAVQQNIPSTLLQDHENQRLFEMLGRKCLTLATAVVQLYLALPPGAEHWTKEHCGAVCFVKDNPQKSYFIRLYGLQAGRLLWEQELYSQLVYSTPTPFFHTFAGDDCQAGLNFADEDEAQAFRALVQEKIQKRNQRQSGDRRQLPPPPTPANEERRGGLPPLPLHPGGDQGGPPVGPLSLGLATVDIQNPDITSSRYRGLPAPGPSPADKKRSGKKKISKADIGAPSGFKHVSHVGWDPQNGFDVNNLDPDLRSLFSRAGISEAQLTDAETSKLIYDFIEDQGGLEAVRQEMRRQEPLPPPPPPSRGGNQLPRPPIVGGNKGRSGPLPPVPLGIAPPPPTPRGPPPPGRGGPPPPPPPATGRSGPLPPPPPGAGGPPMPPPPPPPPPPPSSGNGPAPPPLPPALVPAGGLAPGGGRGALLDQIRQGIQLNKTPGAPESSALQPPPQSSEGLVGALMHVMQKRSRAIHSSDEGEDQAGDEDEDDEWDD
Sequence of PAK1 (Homo sapiens) (Q13153 2-545): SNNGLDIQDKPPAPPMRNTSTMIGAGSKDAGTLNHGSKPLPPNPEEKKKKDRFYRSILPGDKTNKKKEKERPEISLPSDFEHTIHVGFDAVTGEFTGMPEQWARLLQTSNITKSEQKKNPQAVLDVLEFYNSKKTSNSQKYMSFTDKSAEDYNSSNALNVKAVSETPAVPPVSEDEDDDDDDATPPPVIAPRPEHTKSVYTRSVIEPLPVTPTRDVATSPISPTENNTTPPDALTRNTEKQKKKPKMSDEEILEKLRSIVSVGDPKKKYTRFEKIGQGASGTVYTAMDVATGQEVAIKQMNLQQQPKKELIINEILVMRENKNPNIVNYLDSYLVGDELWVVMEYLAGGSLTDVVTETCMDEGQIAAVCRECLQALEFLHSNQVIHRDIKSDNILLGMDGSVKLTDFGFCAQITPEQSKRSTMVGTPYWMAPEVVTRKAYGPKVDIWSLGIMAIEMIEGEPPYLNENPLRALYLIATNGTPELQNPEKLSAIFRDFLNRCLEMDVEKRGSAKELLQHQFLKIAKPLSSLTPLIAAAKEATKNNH

Kd [1]: 620 nM | Kd [2]: 55 nM | Kd [3]: 770 nM
Substance: Cdc42 (from UniProt P60953)
